Measurements: paper PMC9307851

Key:
[1] = biological target: DNMT3B MTase domain R670Q (human, UniProt Q9UBC3 569-853, R670Q); test: ITC; 5 C; N fixed at 0.5; ITC: 20 mM Tris-HCl pH 7.2, 200 mM NaCl, 5% glycerol, 2 mM b-mercaptoethanol, 5 C; EMSA: 50 mM Tris-HCl pH 8.0, 25% glycerol, 8% glucose, 2 mM DTT, 0.1 mg/mL BSA, 30 min, gel in 0.5x TBE at 4 C; conditions: protein: recombinant; tags: His6-MBP removed by TEV; (only upper strand given)
[2] = biological target: DNMT3B MTase domain L664P (human, UniProt Q9UBC3 569-853, L664P); test: ITC; 5 C; N.M. (not measurable); text says much reduced; ITC: 20 mM Tris-HCl pH 7.2, 200 mM NaCl, 5% glycerol, 2 mM b-mercaptoethanol, 5 C; EMSA: 50 mM Tris-HCl pH 8.0, 25% glycerol, 8% glucose, 2 mM DTT, 0.1 mg/mL BSA, 30 min, gel in 0.5x TBE at 4 C; conditions: protein: recombinant; tags: His6-MBP removed by TEV; (only upper strand given)

B1: 24-mer DNA duplex (GAC)8 (dsDNA)
DNA 1: GACGACGACGACGACGACGACGAC
DNA 2: GTCGTCGTCGTCGTCGTCGTCGTC
For B1, the Kd [1] was 24.4 ± 4.4 µM and the binding result [2] was “no binding”.
